Tests used:
[1] = molecular target: T1, hPUF_MT(R7_ILQ) (UniProt Q14671 SEQ:1-342); experiment: EMSA; comparable to WT; settings: label: Alexa680 at 5' and 3'
T1 chain: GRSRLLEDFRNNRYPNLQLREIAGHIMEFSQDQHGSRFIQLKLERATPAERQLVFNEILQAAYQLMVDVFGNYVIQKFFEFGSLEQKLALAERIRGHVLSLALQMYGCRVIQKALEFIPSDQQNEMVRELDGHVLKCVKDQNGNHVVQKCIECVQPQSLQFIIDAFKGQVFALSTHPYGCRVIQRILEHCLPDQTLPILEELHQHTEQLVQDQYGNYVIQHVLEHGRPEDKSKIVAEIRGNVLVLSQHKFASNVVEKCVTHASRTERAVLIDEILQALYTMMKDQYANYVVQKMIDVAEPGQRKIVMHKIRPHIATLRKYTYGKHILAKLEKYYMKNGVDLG

[2] = molecular target: T2, hPUF_MT(R7_IRG) (UniProt Q14671 SEQ:1-342); experiment: EMSA; comparable to WT; settings: label: Alexa680 at 5' and 3'
T2 chain: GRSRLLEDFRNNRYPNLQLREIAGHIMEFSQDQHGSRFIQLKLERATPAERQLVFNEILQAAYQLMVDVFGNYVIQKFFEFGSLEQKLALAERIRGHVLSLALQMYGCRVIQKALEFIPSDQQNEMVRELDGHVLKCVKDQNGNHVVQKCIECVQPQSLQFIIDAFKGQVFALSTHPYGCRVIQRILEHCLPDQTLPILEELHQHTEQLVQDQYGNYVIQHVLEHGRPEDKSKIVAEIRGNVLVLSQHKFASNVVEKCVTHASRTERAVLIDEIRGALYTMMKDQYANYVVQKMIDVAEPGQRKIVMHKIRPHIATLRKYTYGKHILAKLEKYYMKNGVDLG

[3] = molecular target: T3, hPUF_MT(R2_N12S,Q16R, R3→R5, R4→R6) (R2 repeat N12S,Q16R); experiment: EMSA; binds C exclusively; settings: label: Alexa680 at 5' and 3'
T3 chain: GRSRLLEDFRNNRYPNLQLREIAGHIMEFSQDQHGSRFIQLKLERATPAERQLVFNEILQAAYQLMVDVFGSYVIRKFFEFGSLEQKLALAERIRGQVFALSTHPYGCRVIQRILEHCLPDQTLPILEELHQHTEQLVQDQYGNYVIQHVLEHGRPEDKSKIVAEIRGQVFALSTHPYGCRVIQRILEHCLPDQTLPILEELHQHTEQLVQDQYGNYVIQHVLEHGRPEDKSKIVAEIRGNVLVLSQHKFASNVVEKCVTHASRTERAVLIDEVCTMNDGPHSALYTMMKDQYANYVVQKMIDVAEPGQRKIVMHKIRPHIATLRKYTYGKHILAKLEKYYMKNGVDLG

[4] = molecular target: hPUF_MT(905A) (UniProt Q14671 SEQ:1-349, F905A); experiment: EMSA; not significantly affected; settings: tags: MBP; label: Alexa680 at 5' and 3'
Experimental: An RNA probe (OTS-1511) containing a target sequence fluorescence-labeled with Alexa680 at both ends thereof was synthesized.
Each purified protein was diluted to a desired concentration with Binding Buffer, mixed with a binding buffer and Ribonuclease Inhibitor, Cloned (Invitrogen), and then, mixed with the RNA probe at a final concentration of 0.5 nM. […] A binding reaction was performed at 4° C. for 30 min. Subsequently, the solution was gently mixed by pipetting. A binding reaction was performed again at 4° C. for […].

Q: Does CCAGAAUUGUAUAUAUUCG (ssRNA) [OTS-1511] bind [1]?
A: binds

Q: Does CCAGAAUUGUAUAUAUUCG (ssRNA) [OTS-1511] bind [2]?
A: binds

Q: Does CCAGAAUUGUAUAUAUUCG (ssRNA) [OTS-1511] bind [3]?
A: no binding

Q: Does CCAGAAUUGUAUAUAUUCG (ssRNA) [OTS-1511] bind [4]?
A: binds

Reference: US11472855, “RNA-binding protein” (Panitch Schwarze Belisario & Nadel LLP)
